Values quoted from earlier work, collected in US11931453B2, “Drug delivery device” (NANO PRECISION MEDICAL, INC., priority 2016, dated 2024).

Settings: estimated, based on molecular dimensions of similar peptides (literature)

For “GLP-1: Glucagon-Like Peptide-1; exenatide is an analog of GLP-1”, the “Stokes' diameter / hydrodynamic diameter” value is given as “about 2.6 nm”.
